Assay [1] addresses fusion peptide of pIUSind-mBSP3x anchored on Listeria (human; Listeria monocytogenes) (UniProt Q723K6). In words: flow cytometry of deactivated carrier bacteria displaying the 3-fold multimer (FIG. 11; rabbit tumor eBSP antiserum).
For assay [2], the target named is fusion peptide of pIUSind-mBSP6x anchored on Listeria (human; Listeria monocytogenes). Kind of assay: flow cytometry of carrier bacteria displaying the eBSP 6-fold multimer, before deactivation. On the technique in general: In flow cytometry, cells or beads pass a laser one at a time.
Assay [3] deals with fusion peptide of pIUSind-mBSP1x anchored on Listeria (human; Listeria monocytogenes) (UniProt Q723K6). Kind of assay: flow cytometry of carrier bacteria displaying eBSP monomer, BHI and minimal medium (FIG. 9, 10; tumor-epitope specific rabbit antibodies).
In assay [4] the target is fusion peptide of pIUSind-mBSP5x anchored on Listeria (human; Listeria monocytogenes). In words: flow cytometry of deactivated carrier bacteria displaying the 5-fold multimer (FIG. 11; rabbit tumor eBSP antiserum).
The target in assay [5] is eBSP tumor epitope fused to a bacterial carrier protein, anchored on carrier bacteria (human; Listeria monocytogenes). Kind of assay: flow cytometry of carrier bacteria displaying the eBSP-carrier fusion (FIG. 7B).
Assay [6] deals with vBSP-2 anchored on carrier bacteria (human; Listeria monocytogenes) (UniProt P21815). Kind of assay: flow cytometry of carrier bacteria displaying vBSP-2, after deactivation.
For assay [7], the target named is fusion peptide of pIUSind-mBSP5x anchored on Listeria (human; Listeria monocytogenes). Kind of assay: flow cytometry of carrier bacteria displaying the eBSP 5-fold multimer, before deactivation.
The target of assay [8] is vBSP-2 anchored on carrier bacteria (human; Listeria monocytogenes) (UniProt P21815). Kind of assay: flow cytometry of carrier bacteria displaying vBSP-2, before deactivation.
The target of assay [9] is vBSP-3 anchored on carrier bacteria (human; Listeria monocytogenes) (UniProt P21815). Kind of assay: flow cytometry of carrier bacteria displaying vBSP-3, after deactivation.
Assay [10] has the same target. In words: flow cytometry of carrier bacteria displaying vBSP-3, grown in BHI and minimal media, before deactivation (FIG. 4A and B).
Assay [11] deals with fusion peptide of pIUSind-mBSP6x anchored on Listeria (human; Listeria monocytogenes). In words: flow cytometry of carrier bacteria displaying the eBSP 6-fold multimer, after deactivation.
The target in assay [12] is vBSP-4 anchored on carrier bacteria (human; Listeria monocytogenes) (UniProt P21815). In words: flow cytometry of carrier bacteria displaying vBSP-4, after deactivation.
Assay [13] addresses fusion peptide of pIUSind-mBSP6x anchored on Listeria (human; Listeria monocytogenes). Kind of assay: flow cytometry of deactivated carrier bacteria displaying the 6-fold multimer (FIG. 11; rabbit tumor eBSP antiserum).
In assay [14] the target is fusion peptide of pIUSind-mBSP5x anchored on Listeria (human; Listeria monocytogenes). Kind of assay: flow cytometry of carrier bacteria displaying eBSP pentamer, BHI and minimal medium (FIG. 9, 10; tumor-epitope specific rabbit antibodies).
The target is the same in assay [15]. In words: flow cytometry of carrier bacteria displaying the eBSP 5-fold multimer, after deactivation.
The target of assay [16] is vBSP-3 anchored on carrier bacteria (human; Listeria monocytogenes) (UniProt P21815). In words: flow cytometry of carrier bacteria displaying vBSP-3, before deactivation.
Assay [17] has the same target. In words: flow cytometry of deactivated carrier bacteria displaying vBSP-3, grown in minimal medium (FIG. 5B).
Assay [18] addresses fusion peptide of pIUSind-mBSP4x anchored on Listeria (human; Listeria monocytogenes) (UniProt Q723K6). In words: flow cytometry of deactivated carrier bacteria displaying the 4-fold multimer (FIG. 11; rabbit tumor eBSP antiserum).
Assay [19] concerns the target vBSP-4 anchored on carrier bacteria (human; Listeria monocytogenes) (UniProt P21815). Kind of assay: flow cytometry of carrier bacteria displaying vBSP-4, before deactivation.

For “Anti-Human Bone Sialoprotein (amino acids 108-122) Antibody, polyclonal antiserum, Immundiagnostik AG, Cat.-No. A4219.2, Lot H3150503”, the anchoring efficiency (proportion of positive bacteria in FACS) in [1] was greater than 40%; in assay [2], 34.2%; in [3] it was less than 10%; in [4], greater than 40%; in assay [5], 6 to 7%; in [6] it was 65%. Besides, the anchoring efficiency (proportion of positive bacteria in FACS) is 42.5% in assay [7]; 58.4% in assay [8]; 63.9% in [9]; greater than 52% in assay [10]; 46.5% in assay [11]; 67.8% in assay [12]. Moreover, the anchoring efficiency (proportion of positive bacteria in FACS) is greater than 40% in assay [13]; greater than 40% in assay [14]; 40.1% in assay [15]; 52.3% in assay [16]; 41% in assay [17]; greater than 40% in assay [18]. This substance also had an anchoring efficiency (proportion of positive bacteria in FACS) in [19] of 57.8%.
